Data on 8 molecules can be found in patent publication US20230287082A1 (published 2023).

Assay [1] concerns the target human NKp30 (human) (UniProt O14931). Description: BLI, immunoligand on anti-hFc tip.
The target of assay [2] is NKp30 on human NK cells (human) (UniProt O14931). The assay can be described thus: cell-based or functional assay.
The target in assay [3] is human NKp30 (human) (UniProt O14931). Description: BLI, ratio to ΔB7-H6_wt.
The target of assay [4] is T1, yeast surface displayed ΔB7-H6 (wild-type) (human, UniProt Q68D85 25-145).
T1 construct: also called wild-type ΔB7-H6 on yeast; not shown: Aga2p fusion partner of the pYD-derived vector
T1 sequence: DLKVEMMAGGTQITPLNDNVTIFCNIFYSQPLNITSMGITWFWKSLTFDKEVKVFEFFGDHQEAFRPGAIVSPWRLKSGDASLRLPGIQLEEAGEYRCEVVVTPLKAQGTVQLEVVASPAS
The assay can be described thus: yeast surface display, flow cytometry.

Chain of NKp30 on human NK cells (human) (O14931 19-201): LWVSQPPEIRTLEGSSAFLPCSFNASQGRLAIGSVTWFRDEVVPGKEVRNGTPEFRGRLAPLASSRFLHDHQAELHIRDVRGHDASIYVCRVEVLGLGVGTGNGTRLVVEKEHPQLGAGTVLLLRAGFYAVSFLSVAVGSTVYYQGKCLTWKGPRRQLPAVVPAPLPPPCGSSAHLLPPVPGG

B1: ΔB7-H6_S3#26-SEED-PGLALA (bispecific antibody, part only; not given: SEED Fc chains and hu225 Fab, part only)
chain, part: DLKVEMMAGGTQITPLNDNVTIFCNIFYSQPLNITTMGITWFWKSLTFDKEVKVFEFWDDHQEAFRPGAIVSPWRLKSGDASLRLPGIQLEEAGEYRCEVVVTPYKAQGTVQLEVVASPAS
Take B1: in the assay with human NKp30 (human) [1], the Kd came out at 113 nM, the koff was determined as 0.0464 s⁻¹ and the kon came to 409000 M⁻¹ s⁻¹. In assay [2], this molecule had an EC50 (pM), A431 lysis with PBMC of 22.7 pM and an EC50 improvement compared to ΔB7-H6 wt of 38 fold. Also, in the assay with human NKp30 (human) [3], the KD improvement compared to ΔB7-H6 wt stood at 3.6 fold, the x-fold KD improvement turned out to be 3.6 fold and the x-fold Koff improvement came to 3.6 fold.

B2: ΔB7-H6_S2#3-SEED-PGLALA (bispecific antibody, part only; not given: SEED Fc chains and hu225 Fab, part only)
chain, part: DLKVEMMAGGTQITPLNDNVTIFCNIFYSQPLNITTMGITWFWKSLTFDKEVKVFEFWGDHQEAFRPGAIVSPWRLKSGDASLRLPGIQLEEAGEYRCEVVVTPLKAQGTVQLEVVASPAS
With B2, in the assay with human NKp30 (human) [1], the Kd amounted to 194 nM, the koff turned out to be 0.106 s⁻¹ and the kon was found to be 546000 M⁻¹ s⁻¹. For the same molecule, in assay [2], the EC50 (pM), A431 lysis with PBMC was 175 pM and the EC50 improvement compared to ΔB7-H6 wt was found to be 5 fold. Also, in the assay with human NKp30 (human) [3], the KD improvement compared to ΔB7-H6 wt is 2.1 fold, the x-fold KD improvement was 2.1 fold and the x-fold Koff improvement came out at 1.6 fold.

B3: ΔB7-H6_S2#2-SEED-PGLALA (bispecific antibody, part only; not given: SEED Fc chains and hu225 Fab, part only)
chain, part: DLKVEMMAGGTQITPLNDNVTIFCNIFYSQPLNITSMGITWFWKSLTFDKEVKVFEFWDDHQEAFRPGAIVSPWRLKSGDASLRLPGIQLEEAGEYRCEVVVTPYKAQGTVQLEVVASPAS
Regarding B3, in the assay with human NKp30 (human) [1], the Kd worked out at 217 nM, the koff was found to be 0.0737 s⁻¹ and the kon was determined as 340000 M⁻¹ s⁻¹. For the same molecule, in assay [2], the EC50 (pM), A431 lysis with PBMC was 169 pM and the EC50 improvement compared to ΔB7-H6 wt is 5 fold. In the assay with human NKp30 (human) [3], the KD improvement compared to ΔB7-H6 wt was determined as 1.9 fold, the x-fold KD improvement turned out to be 1.9 fold and the x-fold Koff improvement stood at 2.3 fold.

B4: ΔB7-H6_S2#1-SEED-PGLALA (bispecific antibody, part only; not given: SEED Fc chains and hu225 EGFR Fab, part only)
chain, part: DLKVEMMAGGTQITPLNDNVTIFCNIFYSQPLNITSMGITWFWKSLTFDKEVKVFEFYGDHQEAFRPGAIVSPWRLKSGDASLRLPGIQLEEAGEYRCEVVVTPYKAQGTVQLEVVASPAS
With B4, in the assay with human NKp30 (human) [1], the Kd was 205 nM, the koff was determined as 0.078 s⁻¹ and the kon is 380000 M⁻¹ s⁻¹. In assay [2], this molecule gave an EC50 (pM), A431 lysis with PBMC of 140 pM and an EC50 improvement compared to ΔB7-H6 wt of 6 fold. For the same molecule, in the assay with human NKp30 (human) [3], the KD improvement compared to ΔB7-H6 wt amounted to 2 fold, the x-fold KD improvement turned out to be 2 fold and the x-fold Koff improvement was 2.2 fold.

B5: ΔB7-H6_S3#30-SEED-PGLALA (bispecific antibody, part only; not given: SEED Fc chains and hu225 Fab, part only)
chain, part: DLKVEMMAGGTQITPLNDNVTIFCNIFYSQPLNITEMGITWFWKSLTFDKEVKVFEFWGDHQEAFRPGAIVSPWRLKSGDASLRLPGIQLEEAGEYRCEVIVTPLKAQGTVQLEVVASPAS
Take B5: in the assay with human NKp30 (human) [1], the Kd turned out to be 125 nM, the koff is 0.0776 s⁻¹ and the kon is 622000 M⁻¹ s⁻¹. Also, in assay [2], the EC50 (pM), A431 lysis with PBMC is 176 pM and the EC50 improvement compared to ΔB7-H6 wt came out at 5 fold. Further, in the assay with human NKp30 (human) [3], the KD improvement compared to ΔB7-H6 wt turned out to be 3.3 fold, the x-fold KD improvement turned out to be 3.3 fold and the x-fold Koff improvement amounted to 2.2 fold.

B6: ΔB7-H6_S2#7-SEED-PGLALA (bispecific antibody, part only; not given: SEED Fc chains and hu225 Fab, part only)
chain, part: DLKVEMMAGGTQITPLNDNVTIFCNIFYSQPLNITSMGITWFWKSLTFDKEVKVFEFYGDHQEAFRPGAIVSPWRLKSGDASLRLPGIQLEEAGEYRCEVIVTPYKAQGTVQLEVVTSPAS
In the assay with human NKp30 (human) [1], B6 returned a Kd of 191 nM, a koff of 0.0964 s⁻¹ and a kon of 504000 M⁻¹ s⁻¹. In assay [2], this molecule displayed an EC50 (pM), A431 lysis with PBMC of 170 pM and an EC50 improvement compared to ΔB7-H6 wt of 5 fold. Also, in the assay with human NKp30 (human) [3], the KD improvement compared to ΔB7-H6 wt was found to be 2.1 fold, the x-fold KD improvement is 2.1 fold and the x-fold Koff improvement was 1.7 fold.

B7: ΔB7-H6_S3#28-SEED-PGLALA (bispecific antibody, part only; not given: SEED Fc chains and hu225 EGFR Fab, part only)
chain, part: DLKVEMMAGGTQITPLNDNVTIFCNIFYSQPLNITHMGITWFWKSLTFDKEVKVFEFWGDHQEAFRPGAIVSPWRLKSGDASLRLPGIQLEEAGEYRCEVVVTPLKAQGTVQLEVVASPAS
In the assay with human NKp30 (human) [1], B7 yielded a Kd of 443 nM, a koff of 0.136 s⁻¹ and a kon of 306000 M⁻¹ s⁻¹. In assay [2], this molecule yielded an EC50 (pM), A431 lysis with PBMC of 114 pM and an EC50 improvement compared to ΔB7-H6 wt of 8 fold. Also, in the assay with human NKp30 (human) [3], the KD improvement compared to ΔB7-H6 wt was determined as 0.9 fold, the x-fold KD improvement was 0.9 fold and the x-fold Koff improvement was 1.2 fold.

B8: human NKp30 (receptor, UniProt O14931 19-135, looked up)
chain: LWVSQPPEIRTLEGSSAFLPCSFNASQGRLAIGSVTWFRDEVVPGKEVRNGTPEFRGRLAPLASSRFLHDHQAELHIRDVRGHDASIYVCRVEVLGLGVGTGNGTRLVVEKEHPQLG
notes: Soluble analyte in BLI; also called recombinant NKp30; his-tagged NKp30 (Abcam)
For the molecule B8, the binding result in assay [4] was “binds”.
